Values joined by “and” are separate entries in the source; they are usually repeats but may differ in a detail not shown here. Equal entries are not always repeated.
Test: Serum PK of Enhertu: total antibody, total ADC, free payload (HPLC-MS/MS), IV vs SC vs SC + rHuPH20
Conditions: for TADC/TAB Ratio: listed as ADC
Description: Serum concentrations of total ADC, total antibody and Free Payload (unconjugated deruxtecan) were determined in three separate assays using HPLC with MS/MS detection.
A 20.0-μL sample aliquot was diluted 10-fold. A portion of the diluted sample was taken and processed using an immunoaffinity approach. […] The bound proteins were subjected to “on-bead” proteolysis with trypsin. After trypsin digestion, the samples were split into two portions. One portion used the characteristic peptide fragments produced from the trypsin digestion to quantitate total antibody. The second portion was further digested using papain to hydrolyze Dxd from the antibody to quantitate total ADC.
VVSV was used for the quantitation of total antibody concentrations, DSTY was used for the quantitation of intact antibody (troubleshooting purposes only), and Dxd was used for quantitating Total ADC concentrations.
A nominal free Dxd, concentration range of […] was chosen to quantitate samples. This assay requires a 50.0 μL porcine serum and skin aliquot. Samples were kept frozen at −80° C. prior to analysis.
A matrix aliquot is fortified with internal standard. Analytes are isolated through acidified protein precipitation. The eluate is evaporated under a nitrogen stream, and the remaining residue is reconstituted. Final extracts are analyzed via HPLC MS/MS detection using positive ion electrospray.

With Sacituzumab govitecan [Trodelvy] the “Relative difference in serum AUC0-7, Free Payload, vs. ADC-IV” value (SC vs. ADC-IV) was 83%, the “Relative difference in serum AUC0-7, TAB, vs. ADC-IV” value (SC vs. ADC-IV) was 59% and the “Relative difference in serum AUC0-7, TADC, vs. ADC-IV” value (SC vs. ADC-IV) was 60%. The “Relative difference in serum Cmax, Free Payload, vs. ADC-IV” value (SC vs. ADC-IV) was 70%, the “Relative difference in serum Cmax, TAB, vs. ADC-IV” value (SC vs. ADC-IV) was 28% and the “Relative difference in serum Cmax, TADC, vs. ADC-IV” value (SC vs. ADC-IV) was 29%. For the same substance, the “TADC/TAB ratio - serum, mean” value (SC, 6 h) was 1.054, the “TADC/TAB ratio - serum, mean” value (SC, 24 h) was 1.195 and the “TADC/TAB ratio - serum, mean” value (SC, 48 h) was 0.796. For the same substance, the “TADC/TAB ratio - serum, mean” value (SC, 72 h) was 0.806, the “TADC/TAB ratio - serum, mean” value (SC, 96 h) was 0.765 and the “TADC/TAB ratio - serum, mean” value (SC, 168 h) was 1.028. The “SC/IV, mean AUC0-7, ADC” value (minipig serum) was 60%, the “SC/IV, mean AUC0-7, Ab” value (minipig serum) was 59% and the “SC/IV, mean AUC0-7, Payload” value (minipig serum) was 83%. For the same substance, the “SC/IV, mean Cmax, ADC” value (minipig serum) was 29%, the “SC/IV, mean Cmax, Ab” value (minipig serum) was 28% and the “SC/IV, mean Cmax, Payload” value (minipig serum) was 70%. The “ADC/Ab ratio, mean AUC0-7” value (minipig serum, IV) was 86%, the “ADC/Ab ratio, mean Cmax” value (minipig serum, IV) was 93% and the “ADC/Payload ratio, mean AUC0-7” value (minipig serum, IV) was 116066%. The “ADC/Payload ratio, mean Cmax” value (minipig serum, IV) was 201037%, the “ADC/Ab ratio, mean AUC0-7” value (minipig serum, SC) was 87% and the “ADC/Ab ratio, mean Cmax” value (minipig serum, SC) was 96%. The “ADC/Ab ratio, mean Tmax” value (minipig serum, SC) was 60%, the “ADC/Payload ratio, mean AUC0-7” value (minipig serum, SC) was 83512% and the “ADC/Payload ratio, mean Cmax” value (minipig serum, SC) was 83474%. For the same substance, the “ADC/Payload ratio, mean Tmax” value (minipig serum, SC) was 57%, the “AUC0-7, free payload in serum” value (pig, in vivo, iv) was 0.04 µg·days/mL and the “AUC0-7, total ADC in serum” value (pig, in vivo, iv) was 47.73 µg·days/mL. The “AUC0-7, total antibody in serum” value (pig, in vivo, iv) was 55.38 µg·days/mL, the AUC0-7 free payload (pig, in vivo, iv) was 0.04 µg·days/mL and the “AUC0-7 total ADC (TADC)” value (pig, in vivo, iv) was 47.73 µg·days/mL. The “AUC0-7 total antibody (TAB)” value (pig, in vivo, iv) was 55.38 µg·days/mL, the Cmax free payload (pig, in vivo, iv) was 10 ng/mL and the “Cmax total ADC (TADC)” value (pig, in vivo, iv) was 25120 ng/mL. For the same substance, the “Cmax total antibody (TAB)” value (pig, in vivo, iv) was 27000 ng/mL, the “Cmax, free payload in serum” value (pig, in vivo, iv) was 10 ng/mL and the “Cmax, total ADC in serum” value (pig, in vivo, iv) was 25120 ng/mL. For the same substance, the “Cmax, total antibody in serum” value (pig, in vivo, iv) was 27000 ng/mL, the Tmax free payload (pig, in vivo, iv) was 0 h and the “Tmax total ADC (TADC)” value (pig, in vivo, iv) was 0 h. The “Tmax total antibody (TAB)” value (pig, in vivo, iv) was 0 h, the “Tmax, free payload in serum” value (pig, in vivo, iv) was 0 h and the “Tmax, total ADC in serum” value (pig, in vivo, iv) was 0 h. The “Tmax, total antibody in serum” value (pig, in vivo, iv) was 0 h, the “Total ADC concentration in the serum of minipigs” value (“Total ADC concentration” for short) (pig, in vivo, iv, 0 h) was 25.12 µg/mL and the “Total ADC Result” value (pig, in vivo, iv, 5 mL) was <0.100 µg/mL. For the same substance, the “Total ADC concentration” value (pig, in vivo, iv, 5 mL, 6 h) was 21.40 µg/mL, the “Total ADC concentration” value (pig, in vivo, iv, 5 mL, 24 h) was 12.80 µg/mL and the “Total ADC Result” value (pig, in vivo, iv, 6 h) was 21.4 µg/mL. The “Total ADC Result” value (pig, in vivo, iv, 24 h) was 12.8 µg/mL, the “Total ADC Result” value (pig, in vivo, iv, 48 h) was 7.28 µg/mL and the “Total ADC concentration” value (pig, in vivo, iv, 48 h) was 7.28 µg/mL. The “Total ADC Result” value (pig, in vivo, iv, 72 h) was 5.04 µg/mL, the “Total ADC concentration” value (pig, in vivo, iv, 72 h) was 5.04 µg/mL and the “Total ADC Result” value (pig, in vivo, iv, 96 h) was 3.91 µg/mL. The “Total ADC concentration” value (pig, in vivo, iv, 96 h) was 3.91 µg/mL, the “Total ADC Result” value (pig, in vivo, iv, 168 h) was 1.70 µg/mL and the “Total ADC concentration” value (pig, in vivo, iv, 168 h) was 1.70 µg/mL. The “Tmax total ADC (TADC)” value (pig, in vivo, sc) was 24 h, the “Tmax, total ADC in serum” value (pig, in vivo, sc) was 24 h and the “Total ADC Result” value (pig, in vivo, sc, 0 h) was <0.100 µg/mL. For the same substance, the “Total ADC concentration” value (pig, in vivo, sc, 5 mL, 6 h) was 4.08 µg/mL, the “Total ADC concentration” value (pig, in vivo, sc, 5 mL, 24 h) was 7.27 µg/mL and the “Total ADC concentration” value (pig, in vivo, sc, 48 h) was 5.17 µg/mL. The “Total ADC concentration” value (pig, in vivo, sc, 72 h) was 4.35 µg/mL, the “Total ADC concentration” value (pig, in vivo, sc, 96 h) was 3.74 µg/mL and the “Total ADC concentration” value (pig, in vivo, sc, 168 h) was 2.04 µg/mL. For the same substance, the “TADC/Free Payload, AUC0-7” value (serum, IV) was 116066%, the “TADC/Free Payload, Cmax” value (serum, IV) was 201037% and the “TADC/TAB, AUC0-7” value (serum, IV) was 86%. For the same substance, the “TADC/TAB, Cmax” value (serum, IV) was 93%, the “TADC/TAB Ratio” value (serum, IV, 6 h, individual animal) was 0.92 and 0.918 and the “TADC/TAB Ratio” value (serum, IV, 24 h, individual animal) was 0.87 and 0.871. For the same substance, the “TADC/TAB Ratio” value (serum, IV, 48 h, individual animal) was 0.80 and 0.804, the “TADC/TAB Ratio” value (serum, IV, 72 h, individual animal) was 0.88 and 0.877 and the “TADC/TAB Ratio” value (serum, IV, 96 h, individual animal) was 0.77 and 0.773. For the same substance, the “TADC/TAB Ratio” value (serum, IV, 168 h, individual animal) was 0.99 and 0.994, the “TADC/Free Payload, AUC0-7” value (serum, SC) was 83512% and the “TADC/Free Payload, Cmax” value (serum, SC) was 83474%. The “TADC/Free Payload, Tmax” value (serum, SC) was 57%, the “TADC/TAB, AUC0-7” value (serum, SC) was 87% and the “TADC/TAB, Cmax” value (serum, SC) was 96%. The “TADC/TAB, Tmax” value (serum, SC) was 60%, the “TADC/TAB Ratio” value (serum, SC, 6 h, individual animals) was 1.01 and 1.13 and 1.03 and 1.006 and 1.129 and 1.026 and the “TADC/TAB Ratio” value (serum, SC, 24 h, individual animals) was 1.55 and 0.84 and 1.19 and 1.546 and 0.845 and 1.194. The “TADC/TAB Ratio” value (serum, SC, 48 h, individual animals) was 0.81 and 0.82 and 0.76 and 0.808 and 0.823 and 0.756, the “TADC/TAB Ratio” value (serum, SC, 72 h, individual animals) was 0.76 and 0.72 and 0.93 and 0.763 and 0.721 and 0.934 and the “TADC/TAB Ratio” value (serum, SC, 96 h, individual animals) was 0.74 and 0.73 and 0.82 and 0.744 and 0.731 and 0.819. For the same substance, the “TADC/TAB Ratio” value (serum, SC, 168 h, individual animals) was 1.20 and 0.89 and 0.99 and 1.204 and 0.891 and 0.989.
